The target of the experiment is T1, ICE1FL-myc (Arabidopsis thaliana, UniProt Q9LSE2 1-494).
T1 sequence (looked up): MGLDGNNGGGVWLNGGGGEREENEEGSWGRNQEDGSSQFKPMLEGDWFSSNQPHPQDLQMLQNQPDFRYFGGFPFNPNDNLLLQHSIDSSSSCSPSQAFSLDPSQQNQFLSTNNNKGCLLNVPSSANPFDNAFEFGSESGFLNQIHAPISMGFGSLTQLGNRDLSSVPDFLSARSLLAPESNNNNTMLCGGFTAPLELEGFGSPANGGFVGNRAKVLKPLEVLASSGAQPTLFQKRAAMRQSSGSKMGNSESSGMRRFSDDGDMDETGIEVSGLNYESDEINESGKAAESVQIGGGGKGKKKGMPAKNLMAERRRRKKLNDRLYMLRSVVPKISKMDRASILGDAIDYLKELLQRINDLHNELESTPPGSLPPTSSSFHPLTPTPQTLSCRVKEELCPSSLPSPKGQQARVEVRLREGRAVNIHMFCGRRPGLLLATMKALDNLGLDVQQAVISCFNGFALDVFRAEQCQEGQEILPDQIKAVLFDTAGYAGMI
The experiment in a line: cell-based or functional assay.

B1: AIF2FL-nYFP (natural protein, Arabidopsis thaliana, UniProt Q9C8Z9 1-221, looked up)
chain: MASLISDIEPPTSTTSDLVRRKKRSSASSAASSRSSASSVSGEIHARWRSEKQQRIYSAKLFQALQQVRLNSSASTSSSPTAQKRGKAVREAADRALAVSARGRTLWSRAILANRIKLKFRKQRRPRATMAIPAMTTVVSSSSNRSRKRRVSVLRLNKKSIPDVNRKVRVLGRLVPGCGKQSVPVILEEATDYIQALEMQVRAMNSLVQLLSSYGSAPPPI
Turning to B1, the “pCBF2::Luc reporter expression in tobacco leaves on co-expression of full-length AIF2 (p35S::AIF2FL-EGFP) and ICE1 (p35S::ICE1FL-EGFP), against the non-transformed mock control” value was roughly 5 fold.

Source of the values: PMC7031079, “ATBS1-INTERACTING FACTOR 2 negatively regulates dark- and brassinosteroid-induced leaf senescence through interactions with INDUCER OF CBF EXPRESSION 1” (Journal of Experimental Botany, 2019).
